Test results published in patent US20150010566A1 (AIMM THERAPEUTICS B V, published 2015).

B1: AT10-001 (antibody, V domains shown)
VH: EVQLLESGGGLVQPGGSLRLSCAASGFSFSTYAMSWVRQAPGKGLEWVSGISGSGESTYYADSVKGRFTVSRDNSKNTLYLQMNSLRAEDTAVYYCAKQGDHIAWLLRGINFDYWGQGVLVTVSS
VL: EIVLTQSPGTLSLSPGERATLSCRASQSVSSSYLAWYQQKPGQAPRLLIYGASTRATGIPDRFSGRGSGTDFTLTISSLEPEDFAVYYCQNYGSPFLFTFGPGTKVDIKR
B2: AT10-002 (antibody, V domains shown)
VH: QLQLQESGPRLVKPSETLSLTCSVSGVSISSSNYYWGWIRQPPGKGLEWIGTIYHSGSTYYNPSLKSRLIISVDTSKNQFYLQLTSLTAADSAVYYCATGGGFGWSQTYFGYWGQGTLVTASS
VL: QSALTQPASVSGSPGQSITISCTGTSSDVGAYNYVSWYQHHPGKAPKLMIYDVTYRPSGVSTRFSGSKSGNTASLTISGLQAEDEADYYCSSQSRSSTLVIFGGGTKLTVLG
B3: AT10-003 (antibody, V domains shown)
VH: QVHLVQSGAEVRKPGASVKVSCKVSGYTLNELSIHWLRQAPGRGLEWMGSFDPEDGETIYAQKFQGRVTMTGDTSTDTAYLELTSLRSEDTALYYCARGWGAVTSPFDFWGQGTLVTVSS
VL: DIVMTQSPLSLPVTPGEPASISCRSSQSLLHSNGHIYFDWYLQKPGQSPQLLIYLVSKRASGVPDRFSGSGSGTDFTLKISRVEAEDVGVYYCMQALETPFTFGPGTKVHIKR
B4: AT10-005 (antibody, V domains shown)
VH: QVQLVQSGAEVKKPGSSVKVSCKASGGAFSNYAISWVRQAPGQGLEWMGGIIPIFGTTNYAQKFQGRVTITADKFTTIAYMELRSLRSEDTAVYYCARHGGVYYYGSASSGWFDPWGQGTLVTVSS
VL: EIVLTQSPGTLSLSPGERATLSCRASQSVSSSYLAWYQQKPGQAPRLLIFGASTRATGIPDRFSGSGSGTDFTLTISRLEPEDFAVFYCQQYGSLPLTFGGGTKVEIKG
B5: AT10-004 (antibody, V domains shown)
VH: QVQLVQSGAEVRKPGASVKVSCKASGYTFTRHGISWVRQAPGQGLEWMGWISAYTGDTDYAQKFQGRVTMTTDTSTNTAYMELRSLRSDDAAVYYCARLRLQGEVVVPPSQSNWFDPWGQGTLVTVSS
VL: EIVLTQSPATLSLYPGERATLSCRASQSVSRYLAWYQQKPGQAPRLLIYDASNRATGIPARFSGSGSGTDFTLTISSLEPEDFAVYYCQQRSNWLKITFGQGTRLEIKG

What follows are binders tested against HA of Influenza H1N1 (A/Hawaii/31/2007), on infected MDCK-SIAT cells or on virus (Influenza A virus H1N1 A/Hawaii/31/2007) (assay: cell-based or functional assay).

Binder	IC50, in vitro virus neutralization on MDCK-SIAT cells [µg/mL]
B1	> 15

The binders below were run against HA of H3N2 HKX-31 virus (Influenza A virus H3N2 HKX-31) (assay: cell-based or functional assay).

Binder	IC50, in vitro virus neutralization on MDCK-SIAT cells [µg/mL]
B2	0.25
B1	2.1
B3	> 15

The binders below were run against HA of H5N1 A/turkey/Turkey/05 virus (Influenza A virus H5N1 …) (assay: cell-based or functional assay).

Binder	IC50, in vitro virus neutralization on MDCK cells [µg/mL]
B2	> 15
B1	> 15
B4	1.3
B3	> 15

Each binder was assayed against T1, recombinant HA of full length H3 (A/Aichi/2/1968, full length) (Influenza A virus H3N2 A/Aichi/2/1968 …, UniProt P03437 17-530) (assay: ELISA; antigen coated 1 µg/ml; recombinant antibody).
T1 construct: domain: full length; also called H3N2 A/Aichi/2/1968 Full length; full-length H3 HA protein
Design: concentration or dose not given beside the values

Binder	OD 450 nm [OD 450 nm]
B5	0.491
B2	0.92
B1	0.953
B3	1.32
